# Measured values as given in paper PMC7602980 (Biomolecules, 2020).
# B1: Cx43CL_(136-158) M147T peptide (peptide)
# peptide: KYGIEEHGKVKTRGGLLRTYIIS
# notes: connexin43 (Cx43) cytoplasmic loop, residues K136-S158, with the ODDD mutation M147T; ODDD-linked mutation that occurs in patients; No species is named for the synthetic peptides; source: synthetic peptide (LifeTein, 95% purity)
# B2: Cx43CL_(136-158) R148Q peptide (peptide)
# peptide: KYGIEEHGKVKMQGGLLRTYIIS
# notes: connexin43 (Cx43) cytoplasmic loop, residues K136-S158, with the ODDD mutation R148Q; ODDD-linked mutation that occurs in patients; No species is named for the synthetic peptides; source: synthetic peptide (LifeTein, 95% purity)
# B3: Cx43CL_(136-158) T154A peptide (peptide)
# peptide: KYGIEEHGKVKMRGGLLRAYIIS
# notes: connexin43 (Cx43) cytoplasmic loop, residues K136-S158, with the ODDD mutation T154A; ODDD-linked mutation that occurs in patients; No species is named for the synthetic peptides; source: synthetic peptide (LifeTein, 95% purity)
# Molecular target: T1, calmodulin (UniProt P0DP23 1-149)
# T1 construct: calmodulin (CaM); Used 15N-labeled or unlabeled; also called CaM; source: expressed (cloned in pAED4 vector)
# Assay: NMR titration; 15N-HSQC; 15N-labeled CaM at a constant concentration (30–100 μM), unlabeled ligand added (7.5 to 400 μM); KD by nonlinear fitting of chemical shift changes, average of at least six curves
# Conditions: both partners purified
row,Binder,binding result
1,B1,binds
2,B2,binds
3,B3,binds
